According to PMC7962898:

Target: Porcine Epidemic Diarrhea Virus Spike ectodomain, Sf9 expressed (Porcine epidemic diarrhea virus (PEDV) USA/Colorado/2013) (UniProt Q91AV1)
Assay: cryo-EM structure

“Porcine Epidemic Diarrhea Virus Spike ectodomain, Sf9 expressed (from UniProt Q91AV1 26-1322) (domain or fragment)” showed a stoichiometry N of 3.
